# Measurements taken from PMC6945527 (European Heart Journal, 2019).
# B1: CAP1 of the surface plasmon resonance assay and of the binding-affinity measurement (natural protein)
# chain: MADMQNLVERLERAVGRLEAVSHTSDMHRGYADSPSKAGAAPYVQAFDSLLAGPVAEYLKISKEIGGDVQKHAEMVHTGLKLERALLVTASQCQQPAENKLSDLLAPISEQIKEVITFREKNRGSKLFNHLSAVSESIQALGWVAMAPKPGPYVKEMNDAAMFYTNRVLKEYKDVDKKHVDWVKAYLSIWTELQAYIKEFHTTGLAWSKTGPVAKELSGLPSGPSAGSCPPPPPPCPPPPPVSTISCSYESASRSSLFAQINQGESITHALKHVSDDMKTHKNPALKAQSGPVRSGPKPFSAPKPQTSPSPKRATKKEPAVLELEGKKWRVENQENVSNLVIEDTELKQVAYIYKCVNTTLQIKGKINSITVDNCKKLGLVFDDVVGIVEIINSKDVKVQVMGKVPTISINKTDGCHAYLSKNSLDCEIVSAKSSEMNVLIPTEGGDFNEFPVPEQFKTLWNGQKLVTTVTEIAG
# Key:
# [1] = molecular target: CAP1 of the surface plasmon resonance assay and of the binding-affinity measurement (UniProt Q01518)
# [2] = molecular target: PCSK9 S668RG670E of the binding-affinity measurement (Figure S2) (human, UniProt Q8NBP7 31-692, S668R | G670E)
# PCSK9 S668RG670E of the binding-affinity measurement (Figure S2), sequence (Q8NBP7 31-692 S668R/G670E): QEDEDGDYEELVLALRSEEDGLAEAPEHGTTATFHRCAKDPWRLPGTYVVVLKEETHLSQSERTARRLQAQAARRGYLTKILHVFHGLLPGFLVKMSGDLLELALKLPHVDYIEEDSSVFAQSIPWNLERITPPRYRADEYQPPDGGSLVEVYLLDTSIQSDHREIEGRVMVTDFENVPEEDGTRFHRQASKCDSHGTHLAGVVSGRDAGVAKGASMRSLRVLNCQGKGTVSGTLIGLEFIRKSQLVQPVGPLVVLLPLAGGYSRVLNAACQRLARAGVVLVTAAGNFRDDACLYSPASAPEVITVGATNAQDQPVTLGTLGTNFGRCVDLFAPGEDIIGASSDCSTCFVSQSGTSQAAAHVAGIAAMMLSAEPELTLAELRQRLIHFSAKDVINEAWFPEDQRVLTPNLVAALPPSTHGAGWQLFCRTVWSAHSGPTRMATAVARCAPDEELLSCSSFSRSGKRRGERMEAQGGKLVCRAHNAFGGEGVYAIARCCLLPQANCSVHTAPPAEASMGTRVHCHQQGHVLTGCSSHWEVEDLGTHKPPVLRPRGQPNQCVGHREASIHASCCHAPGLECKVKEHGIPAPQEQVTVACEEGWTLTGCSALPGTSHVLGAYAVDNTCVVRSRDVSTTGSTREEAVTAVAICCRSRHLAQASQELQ
# [3] = molecular target: PCSK9 A514T of the binding-affinity measurement (Figure S2) (human, UniProt Q8NBP7 31-692, A514T)
# PCSK9 A514T of the binding-affinity measurement (Figure S2), sequence (Q8NBP7 31-692 A514T): as the sequence (Q8NBP7 31-692 S668R/G670E) above, with A484T, R638S, E640G counted along it
# [4] = molecular target: PCSK9 WT of the binding-affinity measurement (Figure S2) (human, UniProt Q8NBP7 31-692)
# PCSK9 WT of the binding-affinity measurement (Figure S2), sequence (Q8NBP7 31-692): as the sequence (Q8NBP7 31-692 S668R/G670E) above, with R638S, E640G counted along it
Molecule,Kd [1] [nM],Kd [2] [nM],Kd [3] [nM],Kd [4] [nM]
PCSK9 G670E of the binding-affinity measurement (Figure S2) (from UniProt Q8NBP7 31-692) (natural protein),960,–,–,–
B1,–,2320,110,450
